Results taken from US20250368734A1 (ANTENGENE BIOLOGICS, published 2025).

T1: mouse GPRC5D (mouse, UniProt Q9JIL6 1-344)
T1 construct: whole, on cells; HEK293T-mGPRC5D cells; also called mGPRC5D; murine GPRC5D
T1 sequence (looked up): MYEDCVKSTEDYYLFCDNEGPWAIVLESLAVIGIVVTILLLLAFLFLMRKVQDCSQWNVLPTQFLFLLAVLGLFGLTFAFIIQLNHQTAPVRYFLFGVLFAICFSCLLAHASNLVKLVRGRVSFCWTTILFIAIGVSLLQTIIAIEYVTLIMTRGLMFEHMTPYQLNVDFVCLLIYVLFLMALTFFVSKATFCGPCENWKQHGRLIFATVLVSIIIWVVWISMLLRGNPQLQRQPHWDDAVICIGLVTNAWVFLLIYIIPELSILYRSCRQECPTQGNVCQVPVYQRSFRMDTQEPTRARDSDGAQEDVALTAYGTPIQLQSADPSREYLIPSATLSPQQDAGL


Legend:
human GPRC5D [1] = target: T2, human GPRC5D (human, UniProt Q9NZD1 1-345); test: FACS, OPM-2 cells
T2 construct: whole, on cells; also called hGPRC5D; G-protein coupled receptor family C group 5 member D
T2 sequence (Q9NZD1 whole entry): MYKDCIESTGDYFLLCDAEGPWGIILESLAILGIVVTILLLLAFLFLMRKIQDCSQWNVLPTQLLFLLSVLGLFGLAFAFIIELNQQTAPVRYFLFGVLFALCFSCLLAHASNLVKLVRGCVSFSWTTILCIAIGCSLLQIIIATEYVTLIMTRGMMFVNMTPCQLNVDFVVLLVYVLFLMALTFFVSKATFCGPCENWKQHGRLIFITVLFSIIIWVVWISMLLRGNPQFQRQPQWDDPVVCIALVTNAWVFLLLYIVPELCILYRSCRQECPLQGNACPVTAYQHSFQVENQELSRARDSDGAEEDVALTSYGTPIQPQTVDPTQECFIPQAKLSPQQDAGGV
Text: (§1) The subcloning plates were screened by Mirrorball assay and the subclones with good binding ability were expanded to 24-wells for confirmation tests. The specificity and cross-reactivity of these subclones were confirmed with FACS analysis. Briefly, parental HEK293T, HEK293T cells stably over-expressing human GPRC5D protein (i.e., HEK293T-hGPRC5D), HEK293T cells stably over-expressing cynomolgus monkey GPRC5D protein (i.e., HEK293T-cynoGPRC5D), HEK293T cells stably over-expressing mouse GPRC5D protein (i.e., HEK293T-mGPRC5D), and OPM2 cells were incubated with antibodies produced by each subclone, respectively. Fluorescent dye-conjugated secondary antibody was used to detect the binding of the primary antibody with the cells. Median fluorescence intensity (MFI) was measured by FACS analysis,
(§2) As a result, 21 antibodies were discovered with unique sequences showing positive binding with HEK293T-hGPRC5D and OPM2 cells. Among which, some clones could also bind with HEK293T-cynoGPRC5D and/or HEK293T-mGPRC5D. […] ATG596 was a positive human IgG1 control antibody which comprises a VH region having an amino acid sequence as set forth in SEQ ID NO: 199, and a VL region having an amino acid sequence as set forth in SEQ ID NO: 200.

human GPRC5D [2] = target: T2, human GPRC5D; test: FACS, HEK293T-hGPRC5D cells
Text: as §1, §2

cynomolgus monkey GPRC5D [3] = target: T3, cynomolgus monkey GPRC5D (cynomolgus monkey); test: FACS, HEK293T-cynoGPRC5D cells
T3 construct: whole, on cells; HEK293T-cynoGPRC5D cells; also called cynoGPRC5D
Text: as §1, §2

human GPRC5D [4] = target: T2, human GPRC5D; test: FACS, CHOS-hGPRC5D cells
mouse GPRC5D = target: T1, mouse GPRC5D; test: FACS, HEK293T-mGPRC5D cells
cynomolgus monkey GPRC5D [5] = target: T3, cynomolgus monkey GPRC5D; test: FACS, HEK293T-cynoGPRC5D cells; remark: listed apart in the source

% Positive (human GPRC5D [1]) [%] | MFI (human GPRC5D [1]) | % Positive (human GPRC5D [2]) [%] | MFI (human GPRC5D [2]) | % Positive (cynomolgus monkey GPRC5D [3]) [%] | MFI (cynomolgus monkey GPRC5D [3]) | EC50 (human GPRC5D [4]) [nM] | Top (human GPRC5D [4]) | EC50 (mouse GPRC5D) [nM] | Top (mouse GPRC5D) | EC50 (cynomolgus monkey GPRC5D [5]) [nM] | Top (cynomolgus monkey GPRC5D [5]) | Binder
97.4 | 706 | 94.4 | 6050 | 59.8 | 344 | – | – | – | – | – | – | 116G1G4 (antibody, V domains shown, Mouse monoclonal antibody from hybridoma subclone) VH: EVQLQQSGPELVKPGASVKMSCKASGYTFTYYIMHWVKQEPGQGLQWIGYINPYNDGAYYSARFKGKATLTSDKSSSTAYMDLTSLTSEDSAVYYCARGGVRRYFDVWGAGTTVTVSS VL: DIQMTQSPSSLSASLGERVILTCRASQDIGSNLIWLQQKPDGTIKRLIYATFNLDSGVSKRFSGSRSGSDYSLTISSLDSEDFVDYYCLQYASSPYTFGGGTKLEIK
– | – | – | – | – | – | 0.686 | 2240 | – | – | – | – | ch116G1G4 (antibody, V domains shown) VH: EVQLQQSGPELVKPGASVKMSCKASGYTFTYYIMHWVKQEPGQGLQWIGYINPYNDGAYYSARFKGKATLTSDKSSSTAYMDLTSLTSEDSAVYYCARGGVRRYFDVWGAGTTVTVSS VL: DIQMTQSPSSLSASLGERVILTCRASQDIGSNLIWLQQKPDGTIKRLIYATFNLDSGVSKRFSGSRSGSDYSLTISSLDSEDFVDYYCLQYASSPYTFGGGTKLEIK
– | – | – | – | – | – | 3.02 | 2910 | 184 | 45700 | 40.4 | 51300 | ch26E2H6 (antibody, V domains shown) VH: EVQLVESGGDLVKPGGSLKLSCAASGFTFSSYGMSWVRQTPDKRLEWVATISSGGSYTYYPDSVKGRFTISRDNAKNTLYLQMSSLKSEDTAMYYCARHATDYWGQGTTLTVSS VL: QIVLTQSPAIMSASPGEKVTMTCSASSSVSYMHWYQQKSGTSPKRWIYDTSKLASGVPARFSGSGSGTSYSLTISSMEAEDAATYYCQQWSSNPLTFGAGTKLELK
– | – | – | – | – | – | 2.83 | 4110 | 3940 | 5.06e+06 | 11.5 | 45800 | ch20C4E1 (antibody, V domains shown) VH: EVRLVESGGALVRPGGSLKLSCAASGFTFSDYGMHWVRQAPEKGLEWIAFISSVSFTIYYADTVKGRFTISRDNAKNTLFLQMTSLRSEDTALYYCTRLGPHWYFDVWGTGTTVTVSS VL: DVVLTQTPLSLPVSLGDQASISCRSSQSLVYSNGNTYLHWFLQKPGQSPQLLIYKVSNRFSGVPDRFSGSGSGTDFTLKISRVEAEDLGVYFCSQSTPVPTFGGGTKLEIK
98.3 | 824 | 94.1 | 4930 | 55.7 | 278 | – | – | – | – | – | – | 83A9B8 (antibody, V domains shown, Mouse monoclonal antibody from hybridoma subclone) VH: EVQLQQSGPELVKPGASVKMSCKASGYTFSNYVIHWVKQKPGQGLEWIGYFNPYNDGSKYNEKFKGKATLTSDKSSSTAYMELSSLTSEDSAVYYCARGGVRRYFDVWGAGTTVTVSS VL: DIQMTQSPSSLSASLGERVSLTCRASQDIGDNLNWLQQEPDGTIKRLIYATFSLDSGVPKRFSGSRSGSVYSLTISRLESEDFVDYFCLHYASFPYTFGGGTKLEIK
98.4 | 1040 | 96.2 | 42800 | 41.4 | 82.6 | – | – | – | – | – | – | 116F1G6 (antibody, V domains shown, Mouse monoclonal antibody from hybridoma subclone) VH: EVQLQHSGPELVKPGASVKMSCKASGYTFTTYVMHWVKQKPGQGLEWIGYINPYNDGTKYNEKFKGKATLTSDKSSSTAYMELSSLTSEDSAVYYCARGGVRRYFDVWGAGTTVTVSS VL: DIQMTQSPSSLSASLGERVSLTCRASQDIGSNLNWLQQEPNGTIKRLIYATFTLDSGVPKRFSGSRSGSDYSLTISSLESEDFVDYYCLQYASFPYTFGGGTKLEIK
– | – | – | – | – | – | 1.39 | 2970 | 69.6 | 26000 | 9.78 | 46800 | ch98A3A8 (antibody, V domains shown) VH: EVQLQQSGPELVKPGASVKMSCKASGYTFTYYVTHWVRQKPGQGLEWIGYINPYNDGTMFNEKFKGKATLTSDKSSSTAYMEFSSLTSEDSAVFYCARGGVRRYFDVWGAGTTVTVSS VL: DIQMTQSPSSLSASLGERVSLTCRASQDIGSNLNWLQQKPDGTIKRLIYATSSLDSGVPKRFSGSRSGSDYSLTINSLESEDFVDYYCLQYASFPYTFGGGTKLEIK
– | – | – | – | – | – | 0.4 | 1840 | – | – | – | – | ch83A9B8 (antibody, V domains shown) VH: EVQLQQSGPELVKPGASVKMSCKASGYTFSNYVIHWVKQKPGQGLEWIGYFNPYNDGSKYNEKFKGKATLTSDKSSSTAYMELSSLTSEDSAVYYCARGGVRRYFDVWGAGTTVTVSS VL: DIQMTQSPSSLSASLGERVSLTCRASQDIGDNLNWLQQEPDGTIKRLIYATFSLDSGVPKRFSGSRSGSVYSLTISRLESEDFVDYFCLHYASFPYTFGGGTKLEIK

Second part, the binder before the results:

Binder | % Positive (human GPRC5D [1]) [%] | MFI (human GPRC5D [1]) | % Positive (human GPRC5D [2]) [%] | MFI (human GPRC5D [2]) | % Positive (cynomolgus monkey GPRC5D [3]) [%] | MFI (cynomolgus monkey GPRC5D [3]) | EC50 (human GPRC5D [4]) [nM] | Top (human GPRC5D [4]) | EC50 (mouse GPRC5D) [nM] | Top (mouse GPRC5D) | EC50 (cynomolgus monkey GPRC5D [5]) [nM] | Top (cynomolgus monkey GPRC5D [5])
119E4B4 (antibody, V domains shown, Mouse monoclonal antibody from hybridoma subclone) VH: EVQLQQSGAELVKPGASVKLSCTASGFNIKDTYMHWVKQRPEQGLEWIGRIDPANGNTKYDPKFQGKATITADTSSNTAYLQLSSLTSEDTAVYYCARDYGNYEDYAMDYWGQGTSVTVSS VL: not shown | 98.6 | 867 | 88.2 | 3240 | 69.6 | 709 | – | – | – | – | – | –
ch12G12C2 (antibody, V domains shown) VH: QIQLVQSGPELKMPGETVKISCKASGYTFTTYGLSWVKQAPGKGLKWMGWINTFSGVPIYADDFKGRFAFSLETSASTAYLQINNLKNEDTATYFCARWGIRQRGDYWGQGATLTVSS VL: QIVLTQSPAIMSASPGEKVTMTCSASSSVSYLHWYQQKSGTSPKRWIYDTSKLASGVPVRFSGSGSETSYSLTISSMEAEDAATYYCQQWTSNPPTFGGGTKLEIK | – | – | – | – | – | – | 4.06 | 3120 | 995 | 1.48e+06 | 5.94 | 28200
ch28H9C12 (antibody, V domains shown) VH: EVQLVESGGGLVKPGGSLKLSCAASGFTFSDYGMHWVRQAPEKGLEWVAYISSGSSTIYYADTVKGRFTISRDNAKNTLFLQMTSLRSEDTAIYYCVRRPWYFDVWGTGTTVTVSS VL: DVLMTQTPLSLPVSLGDQASISCRSSQSIVHSNGNTYLQWYLQKPGQSPKLLIYKVSNRFSGVPDRFSGSGSGTDFTLKISRLEAEDLGVYYCFQGSHVPFTFGSGTKLEIK | – | – | – | – | – | – | 2.83 | 3960 | 110 | 26500 | 14.8 | 65900
ch82A1C10 (antibody, V domains shown) VH: QVQLKESGPGLVAPSQSLSITCTVSGFSLTNYAVTWVRQPPGKGLEWLGVIWGDGSTYYHSALVSRLSITKDNSRTQVLLKLNSLQTDDTARYYCAKGGYSPFAYWGQGTLVTVSA VL: DVVMTQTPLSLPVSLGDQASISCRSSQSLVHSNGNTYLHWYLQKPGQSPKLLIFKVSNRFSGVPDRFSGSGSGTDFTLKISRVEAEDLGVYFCSQNTHVPFTFGSGTKLEIK | – | – | – | – | – | – | 2.76 | 2680 | – | – | – | –
ch15D6G2 (antibody, V domains shown) VH: EVQLVESGGDLVKPGGYLRLSCAASGFTFSSHGMSWVRQTPDKRLEWVATISSGGRNTYYPDSVKGRFTISRDNAKNILYLQMSSLKSEDTAMFYCTRHSGDAMDYWGQGTSVTVSS VL: DILLTQSPAILSVSPGERVSFSCRASQSIGTNIHWYQQRTNGSPRLLIKYASESISGIPSRFSGSGSGTDFTLSINSVESEDIADYYCQQSKSWPTFGGGTKLEIK | – | – | – | – | – | – | 1.27 | 4080 | 592 | 648000 | 19.3 | 123000
ch36A3G8 (antibody, V domains shown) VH: QVQLQQSGAELARPGASVKMSCKASGYTFTTYTMHWIKQRPGQDLEWIGFINPSSGYTKYNQNFKDKATLTADKSSTTAYMQLNSLTSEDSAVYYCASPYGNIYFDVWGTGTTVTVSS VL: DIVMTQSQKFMSTAVGDRVSITCKASQNVGTAVAWYQQKPGQSPKLLIYSASNRYTGVPDRFTGSGSGTDFTLTISNMQSEDLADYFCQQYSSYPLTFGAGTKLELK | – | – | – | – | – | – | 2.64 | 2780 | – | – | – | –
ch116F1G6 (antibody, V domains shown) VH: EVQLQHSGPELVKPGASVKMSCKASGYTFTTYVMHWVKQKPGQGLEWIGYINPYNDGTKYNEKFKGKATLTSDKSSSTAYMELSSLTSEDSAVYYCARGGVRRYFDVWGAGTTVTVSS VL: DIQMTQSPSSLSASLGERVSLTCRASQDIGSNLNWLQQEPNGTIKRLIYATFTLDSGVPKRFSGSRSGSDYSLTISSLESEDFVDYYCLQYASFPYTFGGGTKLEIK | – | – | – | – | – | – | 0.863 | 1170 | – | – | – | –
